In publication PMC10615782:

Target: Chikungunya virus-like particles (strain 37997) (chikungunya virus) (UniProt Q8JUX5)
Experiment: BLI

Monovalent mouse MXRA8 cleaved from the Fc fusion (from UniProt Q9DBV4 22-336) (domain or fragment)
Kd: 68 nM
